Measurements reported in article PMC9714796.

Target: T1, Transforming growth factor-β2 (TGF-β2)
T1 sequence (P61812 303-414, species assumed, looked up): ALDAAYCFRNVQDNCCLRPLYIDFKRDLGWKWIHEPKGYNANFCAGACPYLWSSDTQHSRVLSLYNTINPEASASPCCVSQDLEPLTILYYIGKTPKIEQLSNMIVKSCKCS

- IC50 of TGF-βRII-Fc against TGF-β2 (480 pg/mL) signalling in A549 cells with the (CAGA)12 luciferase reporter: > 88000
B1: TGF-βRII-Fc (muTGFbRII-mFc) (Fc fusion)
chain: IPPHVPKSVNSDVMASDNGGAVKLPQLCKFCDVRLSTCDNQKSCMSNCSITAICEKPHEVCVAVWRKNDKNITLETVCHDPKLTYHGFTLEDAASPKCVMKEKKRAGETFFMCACNMEECNDYIIFSEEYTTSSPDLLLVIIQ
